± gives the uncertainty stated by the source.
Assay: self-splicing fitness, log relative to wild type (ln ratio); higher = more splicing; Tetrahymena group I intron in knt gene, E. coli kanamycin selection, DiMSum; sequences stand for … in CUCUCU…GGAGGGAAAAGUUAUCAGGCAUGCACCUGGUAGCUAGUCUUUAAACCAAUAGAUUGCAUCGGUUUAAAAGGCAAGACCGUCAAAUUGCGGGAAAGGGGUCAACAGCCGUUCAGUACCAAGUCUCAGGGGAAACUUUGAGAUGGCCUUGCAAAGGGUAUGGUAAUAAGCUGACGGACAUGGUCCUAACCACGCAGCCAAGUCCUAAGUCAACAGAUCUUCUGUUGAUAUGGAUGCAGUUCACAGACUAAAUGUCGGUCGGGGAAGAUGUAUUCUUCUCAUAAGAUAUAGUCGGACCUCUCCUUAAUGGGAGCUAGCGGAUGAAGUGAUGCAACACUGGAGCCGCUGGGAACUAAUUUGUAUGCGAAAGUAUAUUGAUUAGUUUUGGAGUACUCGUGGUCG
Outline: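 A randomised library covering all eight P1ex-region intron nucleotides was built with the intron in the knt kanamycin-resistance gene on pET-22b(+) and held in E. coli BL21(DE3). Cells were grown overnight at 37°C or 30°C on LB agar, with or without 25 μg/mL kanamycin, plus 100 μg/mL carbenicillin, 50 μM IPTG and 0.2% rhamnose, and pooled colonies were amplicon-sequenced on an Illumina HiSeq 2500. DiMSum fitness is the error-weighted combination of wild-type-normalised replicate fold changes, kanamycin versus none.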

Sequence | self-splicing fitness (ln) (30 °C) | self-splicing fitness (ln) (37 °C)
ACCUAGCAAUAUUACGGGCC | -2.34 ± 0.18 | -0.63 ± 0.16
UUUGAGCAAUAUUACGACUU | -3.13 ± 0.34 | -2.28 ± 0.37
GCCCAGCAAUAUUACGACCC | -0.0226 ± 0.14 | -0.0967 ± 0.21
GAUGAGCAAUAUUACGCGUA | -1.96 ± 0.29 | -1.85 ± 0.33
AGCCAGCAAUAUUACGAUAA | -4.66 ± 0.46 | -2.89 ± 0.17
GUGAAGCAAUAUUACGGGCA | -0.763 ± 0.064 | -0.106 ± 0.083
CGUGAGCAAUAUUACGGGAC |  | -1.88 ± 0.41
CGGAAGCAAUAUUACGCCUA | -1.72 ± 0.21 | -0.963 ± 0.18
CAGCAGCAAUAUUACGGAUA | -3.18 ± 0.24 | -2.41 ± 0.17
CACAAGCAAUAUUACGUUUU | -4.18 ± 0.15 | -3.45 ± 0.22
GGGUAGCAAUAUUACGUAUG |  | -1.84 ± 0.19
UCACAGCAAUAUUACGCCUG | -1.21 ± 0.11 | -0.438 ± 0.12
ACCGAGCAAUAUUACGCAUU | -3.91 ± 0.17 | -1.78 ± 0.12
GGCGAGCAAUAUUACGGGUG | -2.31 ± 0.12 | -1.96 ± 0.14
CGGGAGCAAUAUUACGGGGU | -2.03 ± 0.42 | 
UACGAGCAAUAUUACGGAUU | -2.38 ± 0.33 | 
AAGCAGCAAUAUUACGCAAG | -2.43 ± 0.19 | -0.222 ± 0.098
CGGCAGCAAUAUUACGGCUU | -0.457 ± 0.065 | 0.278 ± 0.095
CGGUAGCAAUAUUACGAAGA | -2.99 ± 0.42 | -2.32 ± 0.29
UCACAGCAAUAUUACGAUAU | -2.96 ± 0.22 | -2.67 ± 0.19
GCAGAGCAAUAUUACGUAAG | -1.79 ± 0.16 | -1.88 ± 0.23
GCACAGCAAUAUUACGUACA | -2.07 ± 0.1 | -0.994 ± 0.1
GUAGAGCAAUAUUACGCGCU | -2.69 ± 0.32 | -2.85 ± 0.32
UCCGAGCAAUAUUACGACAA | -2.23 ± 0.46 | 
AAUCAGCAAUAUUACGCAGG | -1.51 ± 0.11 | 0.11 ± 0.097

Sequence | self-splicing fitness (ln) (30 °C) | self-splicing fitness (ln) (37 °C)
ACGCAGCAAUAUUACGUGCU | -3.65 ± 0.18 | -2.9 ± 0.19
CUGUAGCAAUAUUACGGCUA |  | -1.51 ± 0.39
GCGUAGCAAUAUUACGAUCC | -2.41 ± 0.13 | -0.852 ± 0.15
ACAGAGCAAUAUUACGUGUU | -2.64 ± 0.12 | -2.51 ± 0.18
UGGCAGCAAUAUUACGUGCG | -0.238 ± 0.061 | 0.163 ± 0.084
UAGAAGCAAUAUUACGGGGC | -3.58 ± 0.39 | -1.6 ± 0.21
GUGUAGCAAUAUUACGACUA | -0.34 ± 0.11 | 0.0605 ± 0.12
GGCGAGCAAUAUUACGGGAG | -3.99 ± 0.34 | -1.33 ± 0.23
GGUAAGCAAUAUUACGUCGC | -1.17 ± 0.13 | -0.683 ± 0.13
CAUAAGCAAUAUUACGUGAG | -3.12 ± 0.13 | -0.711 ± 0.099
ACACAGCAAUAUUACGGCCU | -0.094 ± 0.086 | -0.0787 ± 0.12
AGCUAGCAAUAUUACGUAGC | -1.84 ± 0.12 | -2.46 ± 0.25
GUGUAGCAAUAUUACGAAGA |  | -1.38 ± 0.39
UGGCAGCAAUAUUACGAUGU | -4.09 ± 0.3 | -1.67 ± 0.34
CCUGAGCAAUAUUACGCAAA | -2.19 ± 0.26 | -2.42 ± 0.28
CAGGAGCAAUAUUACGUCAU |  | -1.89 ± 0.33
UUGAAGCAAUAUUACGUGAA | -1.92 ± 0.26 | -0.781 ± 0.22
GCAGAGCAAUAUUACGUUUG | -3.98 ± 0.27 | -2.77 ± 0.25
UGCAAGCAAUAUUACGCCCA | -0.543 ± 0.14 | 0.796 ± 0.23
GAUUAGCAAUAUUACGAUCU | -0.776 ± 0.2 | -2.2 ± 0.38
CGUAAGCAAUAUUACGAUAG | -1.72 ± 0.093 | -0.661 ± 0.11
AGGGAGCAAUAUUACGAUGA | -3.54 ± 0.37 | -2.7 ± 0.41
UGGCAGCAAUAUUACGUUCA | -0.133 ± 0.084 | 0.272 ± 0.1
GUGCAGCAAUAUUACGGCAA | 0.24 ± 0.12 | 0.291 ± 0.15
GCGCAGCAAUAUUACGUGUG | -3.2 ± 0.12 | -2.65 ± 0.15

Sequence | self-splicing fitness (ln) (30 °C) | self-splicing fitness (ln) (37 °C)
CAUCAGCAAUAUUACGAGAG | -1.9 ± 0.072 | -0.955 ± 0.075
CAGAAGCAAUAUUACGUAUC |  | -3.17 ± 0.24
GUGUAGCAAUAUUACGUCGC | -2.48 ± 0.26 | 
AUAAAGCAAUAUUACGUCGC | -2.83 ± 0.25 | -1.41 ± 0.19
CGGCAGCAAUAUUACGAUAA | -2.07 ± 0.21 | -1.96 ± 0.34
CCGAAGCAAUAUUACGUAGU | -3.44 ± 0.17 | -3.21 ± 0.23
UGUCAGCAAUAUUACGUCUU | -0.331 ± 0.071 | -0.0647 ± 0.09
UACAAGCAAUAUUACGGCCA | -0.557 ± 0.14 | 0.111 ± 0.16
UACAAGCAAUAUUACGUAAG | -3.96 ± 0.21 | -3.05 ± 0.19
AGUCAGCAAUAUUACGUAGG | -3.1 ± 0.12 | -1.64 ± 0.14
CUGCAGCAAUAUUACGGAUC |  | -2.38 ± 0.21
GAGCAGCAAUAUUACGCAAC | -2.85 ± 0.28 | -2.22 ± 0.45
UGCAAGCAAUAUUACGUACC | -2.18 ± 0.16 | -1.02 ± 0.23
AGUGAGCAAUAUUACGCUUA |  | -1.98 ± 0.38
UGCUAGCAAUAUUACGUGAU | -1.88 ± 0.13 | -1.39 ± 0.16
UGUUAGCAAUAUUACGGUUA | -0.39 ± 0.086 | 0.504 ± 0.088
GAGUAGCAAUAUUACGAGUC | -3.59 ± 0.34 | -1.48 ± 0.27
CUCCAGCAAUAUUACGUCAG | -1.2 ± 0.067 | -0.906 ± 0.098
CAACAGCAAUAUUACGUAGA | -2.68 ± 0.081 | -1.18 ± 0.081
UCGGAGCAAUAUUACGUGUC |  | -2.26 ± 0.29
CCGCAGCAAUAUUACGAUCU | -3.81 ± 0.29 | -2.35 ± 0.26
GUCAAGCAAUAUUACGGGGG | -4.02 ± 0.46 | -2.86 ± 0.34
AGCAAGCAAUAUUACGUACU | -0.47 ± 0.057 | -0.368 ± 0.075
CUGUAGCAAUAUUACGAGUC |  | -2.05 ± 0.31
GCUCAGCAAUAUUACGGUCU | -0.866 ± 0.087 | -0.0674 ± 0.12

Sequence | self-splicing fitness (ln) (30 °C) | self-splicing fitness (ln) (37 °C)
UCCAAGCAAUAUUACGUAAC | -3.57 ± 0.17 | -1.41 ± 0.15
UGUAAGCAAUAUUACGAUCA | 0.319 ± 0.079 | 0.535 ± 0.13
CUUAAGCAAUAUUACGCCAA | -2.46 ± 0.42 | -2.43 ± 0.33
UGUCAGCAAUAUUACGCUGC | -3.54 ± 0.43 | -0.934 ± 0.25
ACUUAGCAAUAUUACGAUGU | -1.78 ± 0.08 | -1.36 ± 0.11
CUAGAGCAAUAUUACGAUCU | -4.31 ± 0.34 | -2.29 ± 0.34
ACAAAGCAAUAUUACGGUAG | -3.48 ± 0.16 | -3.21 ± 0.24
CAAGAGCAAUAUUACGUAUG | -3.02 ± 0.13 | -1.36 ± 0.15
CGAAAGCAAUAUUACGCUGG | -1.66 ± 0.11 | -0.903 ± 0.14
CAGAAGCAAUAUUACGAGGU | -4.11 ± 0.36 | -3 ± 0.32
UUCUAGCAAUAUUACGAGAU | -3.95 ± 0.33 | -2.67 ± 0.34
GCAGAGCAAUAUUACGUUGU | -5.06 ± 0.46 | -3.02 ± 0.29
CAUUAGCAAUAUUACGAAAU | -3.12 ± 0.29 | -2.37 ± 0.28
UGUAAGCAAUAUUACGCUUA | -1.79 ± 0.15 | -2.39 ± 0.19
AUUUAGCAAUAUUACGCUGA | -1.32 ± 0.19 | -2.44 ± 0.3
ACGAAGCAAUAUUACGUCGA | -2.34 ± 0.12 | -1.65 ± 0.1
UAAUAGCAAUAUUACGUCAU | -4 ± 0.28 | -2.52 ± 0.22
GAGCAGCAAUAUUACGUGGG | -3.13 ± 0.24 | -3.03 ± 0.27
GACUAGCAAUAUUACGCCAU | -2.02 ± 0.12 | -1.32 ± 0.14
CUAGAGCAAUAUUACGAUGG | -0.193 ± 0.11 | 0.418 ± 0.14
UUCAAGCAAUAUUACGAUCU | -1.59 ± 0.092 | -0.996 ± 0.089
UAAGAGCAAUAUUACGCGUU |  | -2.04 ± 0.33
ACAAAGCAAUAUUACGACGC | -0.112 ± 0.044 | 0.422 ± 0.066
CUGGAGCAAUAUUACGUGAG | -0.772 ± 0.049 | -0.213 ± 0.063
ACUGAGCAAUAUUACGUACA | -1.96 ± 0.24 | -0.524 ± 0.17
